Experimental data taken from the supplement of paper PMC10567573.

Assay: protein stability index of a GFP-peptide fusion (GPS, HEK-293T) (PSI 1-6); higher = more stable
Conditions: c terminus: native
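Note: lentivirally expressed fusion library, cells FACS-sorted into six equal-sized GFP/DsRed ratio bins, PSI computed from sequencing read fractions per bin weighted by bin number.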

CQPISFSGFGAEDDDLGGLGLGPQ [POLD2 addQ]
protein stability index (parent: NP_006221.1): 2.97

EQRNSRWNTVLRAVKAKTHHLEPQ [TRPA1 addQ]
protein stability index (parent: NP_015628.1): 4.94

DGWIRVSSDNVADLHEKYSGSTPQ [PSMB5 addQ]
protein stability index (parent: NP_002788.1): 3.53

LPALFTDLYSQEITAEEAREALPQ [SNF8 addQ]
protein stability index (parent: NP_009172.2): 5.05
